# B1: RINN1_(28–83), recombinant (domain or fragment, human, UniProt Q6ZNX1 28-83, looked up)
# chain: QDFPTRPLSRFIPWFPYDGSKLPLRPKRSPPVISEEAAEDVKQYLTISEHDAKSHS
# Molecular target: His6-REV7_(R124A), recombinant (human, UniProt Q9UI95 1-211, R124A)
# Test: ITC
# Sequence of His6-REV7_(R124A), recombinant (Q9UI95 whole entry R124A): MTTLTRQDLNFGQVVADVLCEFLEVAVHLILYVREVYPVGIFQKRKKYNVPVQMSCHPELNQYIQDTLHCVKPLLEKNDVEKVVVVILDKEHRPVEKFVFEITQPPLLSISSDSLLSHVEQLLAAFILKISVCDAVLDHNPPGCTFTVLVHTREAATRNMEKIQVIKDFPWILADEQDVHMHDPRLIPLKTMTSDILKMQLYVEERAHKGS
binder,measurement,value
B1,Kd,15.8 nM

# From PMC8108093 (Cell, 2018)
